# Assay results from patent US20240116985A1, “STAPLED PEPTIDES AND METHODS THEREOF” (priority 2020, published 2024).
# Starred links: 1 amine or outer side, 2 acyl side, 3 side chain; linkers in the order of their positions; H or OH if unused. Positions of bridges follow the written chain, without caps; N, C: chain ends. Non-standard residues stand in square brackets, D forms with d. Primed or numbered codes have the meaning given here. PyrS2″ = (S)-3-amino-1-((pent-4-en-1-yloxy)carbonyl)pyrrolidine-3-carboxylic acid (stapling residue), C=CCCCOC(=O)N1CC[C@@](N[*:1])(C(=O)[*:2])C1; B5(30) = 2-amino-2-(pent-4-en-1-yl)hept-6-enoic acid (2,2-bis(4-pentenyl)glycine, stitching residue), C=CCCCC(CCCC=C)(N[*:1])C(=O)[*:2]; B5(4) = 2,2-bis(4-pentenyl)glycine = 2-amino-2-(pent-4-en-1-yl)hept-6-enoic acid (stitching residue), C=CCCCC(CCCC=C)(N[*:1])C(=O)[*:2]; B5(5) = 2,2-bis(4-pentenyl)glycine, 2-amino-2-(pent-4-en-1-yl)hept-6-enoic acid (stitching residue), C=CCCCC(CCCC=C)(N[*:1])C(=O)[*:2]; TfeGA = (S)-2-amino-3-((carboxymethyl)(2,2,2-trifluoroethyl)amino)propanoic acid, O=C([C@H](CN(CC(=O)[*:3])CC(F)(F)F)N[*:1])[*:2]; PyrS2 = (S)-3-amino-1-((pent-4-en-1-yloxy)carbonyl)pyrrolidine-3-carboxylic acid, C=CCCCOC(=O)N1CC[C@@](N[*:1])(C(=O)[*:2])C1; MePpzAsn = (S)-2-amino-4-(4-methylpiperazin-1-yl)-4-oxobutanoic acid, CN1CCN(C(=O)C[C@H](N[*:1])C(=O)[*:2])CC1; F2PipNva = (S)-2-amino-5-(4,4-difluoropiperidin-1-yl)pentanoic acid, O=C([C@H](CCCN1CCC(F)(F)CC1)N[*:1])[*:2]; B5(25) = 2-amino-2-(pent-4-en-1-yl)hept-6-enoic acid (stitching residue), C=CCCCC(CCCC=C)(N[*:1])C(=O)[*:2]; MorphAsn = (S)-2-amino-4-morpholino-4-oxobutanoic acid, O=C(C[C@H](N[*:1])C(=O)[*:2])N1CCOCC1; B5(3) = 2,2-bis(4-pentenyl)glycine (stitching residue), C=CCCCC(CCCC=C)(N[*:1])C(=O)[*:2]; B5 = 2-amino-2-(pent-4-en-1-yl)hept-6-enoic acid, C=CCCCC(CCCC=C)(N[*:1])C(=O)[*:2]; Nva(5-morpholino) = N[C@@H](CCCN1CCOCC1)C(=O)O; Phe(3-COOH) = N[C@@H](Cc1cccc(C(=O)O)c1)C(=O)O; 2F3MeF = Cc1cccc(C[C@H](N[*:1])C(=O)[*:2])c1F; Phe(2-Cl) = N[C@@H](Cc1ccccc1Cl)C(=O)O; Bta = N[C@@H](Cc1csc2ccccc12)C(=O)O; Lys(iPr) = CC(C)NCCCC[C@H](N)C(=O)O; αAllylPro = C=CC[C@@]1(C(=O)O)CCCN1; tBuAla = CC(C)(C)C[C@H](N)C(=O)O; 3Thi = N[C@@H](Cc1ccsc1)C(=O)O; hLeu = CC(C)CC[C@H](N)C(=O)O; hSer = N[C@@H](CCO)C(=O)O; Nle = CCCC[C@H](N)C(=O)O
# Target: full-length beta-Catenin (Uniprot ID P35222) (Homo sapiens (Human)) (UniProt P35222)
# Assay: fluorescence polarization competition vs 5FAM-TCF4(10-53) on full-length beta-catenin
row,IC50 [nM],Binder
1,868,"Ac-[αAllylPro]D[tBuAla][B5(30)]NTAAFN[PyrS2][3Thi][Bta]L-NH2 (staple 1-4, 4-11; also: earlier-eluting HPLC isomer) [I-1880]"
2,397,"Ac-[αAllylPro]D[tBuAla][B5(30)]NTAAFR[PyrS2][3Thi][Bta]Q-NH2 (staple 1-4, 4-11; also: earlier-eluting HPLC isomer) [I-1882]"
3,884,"Ac-[αAllylPro]D[tBuAla][B5(30)]NTAAFR[PyrS2][3Thi][Bta]Q-NH2 (staple 1-4, 4-11; also: later-eluting HPLC isomer) [I-1883]"
4,458,"Ac-[αAllylPro]D[tBuAla][B5(5)]NTAAFN[PyrS2″][3Thi][Bta]V-NH2 (staple 1-4, 4-11; also: separately listed staple isomer composition) [I-1878]"
5,1340,"Ac-[αAllylPro]D[tBuAla][B5(5)]NTAAFN[PyrS2″][3Thi]WQ-NH2 (staple 1-4, 4-11; also: separately listed staple isomer composition) [I-1876]"
6,1520,"Ac-[αAllylPro]D[tBuAla][B5(5)]NTAAFN[PyrS2″][3Thi]WQ-NH2 (staple 1-4, 4-11; also: separately listed staple isomer composition) [I-1877]"
7,567,"Ac-[αAllylPro]D[tBuAla][B5(30)]NTAAFN[PyrS2″][3Thi][Bta]V-NH2 (staple 1-4, 4-11; also: later-eluting HPLC isomer) [I-1879]"
8,743,"Ac-[αAllylPro]D[tBuAla][B5(30)]NTAAFN[PyrS2][3Thi][Bta]L-NH2 (staple 1-4, 4-11; also: later-eluting HPLC isomer) [I-1881]"

# Further lines, the binder ahead of its results:
row,Binder,IC50 [nM]
1,"Ac-[αAllylPro]D[tBuAla][B5]D[TfeGA]AAFT[PyrS2][3Thi][Bta]S-NH2 (staple 1-4, 4-11; also: later-eluting staple isomer composition) [I-957]",1430
2,"Ac-[αAllylPro]D[tBuAla][B5]D[TfeGA]AAFS[PyrS2][3Thi][Bta]S-NH2 (staple 1-4, 4-11; also: later-eluting staple isomer composition) [I-955]",1200
3,"Ac-[αAllylPro]D[tBuAla][B5(25)]D[TfeGA]AAFF[PyrS2″][3Thi][Bta]S-NH2 (staple 1-4, 4-11; also: earlier-eluting HPLC staple isomer) [I-962]",407
4,"Ac-[αAllylPro]D[tBuAla][B5(25)]D[TfeGA]AAFF[PyrS2″][3Thi][Bta]S-NH2 (staple 1-4, 4-11; not fully specified) [I-963]",402
5,"Ac-[αAllylPro]D[tBuAla][B5]D[TfeGA]AAFN[PyrS2][3Thi][Bta]Y-NH2 (staple 1-4, 4-11; also: earlier-eluting staple isomer composition) [I-952]",1210
6,"Ac-[αAllylPro]D[tBuAla][B5]D[TfeGA]AAFT[PyrS2][3Thi][Bta]S-NH2 (staple 1-4, 4-11; also: earlier-eluting staple isomer composition) [I-956]",1090
7,"Ac-[αAllylPro]D[tBuAla][B5]D[TfeGA]AAF[hSer][PyrS2][3Thi][Bta]S-NH2 (staple 1-4, 4-11; also: earlier-eluting staple isomer composition) [I-958]",606
8,"Ac-[αAllylPro]D[tBuAla][B5]D[TfeGA]AAFS[PyrS2][3Thi][Bta]S-NH2 (staple 1-4, 4-11; also: earlier-eluting staple isomer composition) [I-954]",900
9,"Ac-[αAllylPro]D[tBuAla][B5]D[TfeGA]AAFN[PyrS2][3Thi][Bta]Y-NH2 (staple 1-4, 4-11; also: later-eluting staple isomer composition) [I-953]",1460
10,"Ac-[αAllylPro]D[tBuAla][B5]D[TfeGA]AAF[hSer][PyrS2][3Thi][Bta]S-NH2 (staple 1-4, 4-11; also: later-eluting staple isomer composition) [I-959]",881

# Target: full-length beta-Catenin (Uniprot ID P35222) (Homo sapiens (Human)) (UniProt P35222)
# Assay: fluorescence polarization competition; 10 nM full-length beta-catenin + 10 nM 5FAM-TCF4(10-53) probe
# Target sequence in this assay (P35222 whole entry): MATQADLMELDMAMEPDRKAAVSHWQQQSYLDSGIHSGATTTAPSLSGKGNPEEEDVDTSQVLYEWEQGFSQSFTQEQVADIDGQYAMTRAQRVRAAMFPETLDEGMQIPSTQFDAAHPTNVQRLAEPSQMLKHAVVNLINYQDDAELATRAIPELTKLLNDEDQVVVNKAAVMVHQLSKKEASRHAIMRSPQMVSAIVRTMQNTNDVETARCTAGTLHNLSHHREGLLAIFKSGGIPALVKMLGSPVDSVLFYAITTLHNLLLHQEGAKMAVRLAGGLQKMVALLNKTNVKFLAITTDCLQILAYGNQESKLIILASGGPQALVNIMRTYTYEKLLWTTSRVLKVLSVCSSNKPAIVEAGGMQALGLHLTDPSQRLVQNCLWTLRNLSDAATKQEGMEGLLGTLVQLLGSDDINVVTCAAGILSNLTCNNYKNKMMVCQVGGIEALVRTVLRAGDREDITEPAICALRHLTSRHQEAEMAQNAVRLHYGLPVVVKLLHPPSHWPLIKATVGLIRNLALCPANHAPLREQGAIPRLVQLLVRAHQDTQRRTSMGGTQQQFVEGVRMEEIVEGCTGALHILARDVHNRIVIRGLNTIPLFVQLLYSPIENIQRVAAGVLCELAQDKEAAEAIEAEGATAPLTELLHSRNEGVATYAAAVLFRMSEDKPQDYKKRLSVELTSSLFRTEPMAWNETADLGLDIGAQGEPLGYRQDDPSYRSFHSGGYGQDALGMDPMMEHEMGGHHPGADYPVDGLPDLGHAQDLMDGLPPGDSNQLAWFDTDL
row,EC50 [nM],Binder
1,1430,"Ac-[αAllylPro]D[tBuAla][B5]D[TfeGA]AAFT[PyrS2][3Thi][Bta]S-NH2 (staple 1-4, 4-11; also: later-eluting staple isomer composition) [I-957]"
2,1200,"Ac-[αAllylPro]D[tBuAla][B5]D[TfeGA]AAFS[PyrS2][3Thi][Bta]S-NH2 (staple 1-4, 4-11; also: later-eluting staple isomer composition) [I-955]"
3,407,"Ac-[αAllylPro]D[tBuAla][B5(25)]D[TfeGA]AAFF[PyrS2″][3Thi][Bta]S-NH2 (staple 1-4, 4-11; also: earlier-eluting HPLC staple isomer) [I-962]"
4,402,"Ac-[αAllylPro]D[tBuAla][B5(25)]D[TfeGA]AAFF[PyrS2″][3Thi][Bta]S-NH2 (staple 1-4, 4-11; not fully specified) [I-963]"
5,1210,"Ac-[αAllylPro]D[tBuAla][B5]D[TfeGA]AAFN[PyrS2][3Thi][Bta]Y-NH2 (staple 1-4, 4-11; also: earlier-eluting staple isomer composition) [I-952]"
6,1090,"Ac-[αAllylPro]D[tBuAla][B5]D[TfeGA]AAFT[PyrS2][3Thi][Bta]S-NH2 (staple 1-4, 4-11; also: earlier-eluting staple isomer composition) [I-956]"
7,606,"Ac-[αAllylPro]D[tBuAla][B5]D[TfeGA]AAF[hSer][PyrS2][3Thi][Bta]S-NH2 (staple 1-4, 4-11; also: earlier-eluting staple isomer composition) [I-958]"
8,900,"Ac-[αAllylPro]D[tBuAla][B5]D[TfeGA]AAFS[PyrS2][3Thi][Bta]S-NH2 (staple 1-4, 4-11; also: earlier-eluting staple isomer composition) [I-954]"
9,1460,"Ac-[αAllylPro]D[tBuAla][B5]D[TfeGA]AAFN[PyrS2][3Thi][Bta]Y-NH2 (staple 1-4, 4-11; also: later-eluting staple isomer composition) [I-953]"
10,881,"Ac-[αAllylPro]D[tBuAla][B5]D[TfeGA]AAF[hSer][PyrS2][3Thi][Bta]S-NH2 (staple 1-4, 4-11; also: later-eluting staple isomer composition) [I-959]"

# Target: full-length beta-Catenin (Uniprot ID P35222) (Homo sapiens (Human)) (UniProt P35222)
# Assay: fluorescence polarization competition against 5FAM-TCF4 10-53 on full-length beta-catenin
row,IC50 [nM],Binder
1,1290,"Ac-[αAllylPro]D[tBuAla][B5(4)]NTAAF[Nle][PyrS2″][3Thi][Bta]Q-NH2 (staple 1-4, 4-11) [I-1619]"
2,9,"Ac-[αAllylPro]D[tBuAla][B5(3)]D[TfeGA]AAFT[PyrS2″][Phe(2-Cl)][Bta][Lys(iPr)]-NH2 (staple 1-4, 4-11) [I-1615]"
3,15,"Ac-[αAllylPro]D[tBuAla][B5(3)]D[Phe(3-COOH)]AAFL[PyrS2″][2F3MeF][Bta][MorphAsn]-NH2 (staple 1-4, 4-11) [I-1614]"
4,10,"Ac-[αAllylPro]D[tBuAla][B5(3)]D[Phe(3-COOH)]AAFL[PyrS2″][2F3MeF][Bta][MePpzAsn]-NH2 (staple 1-4, 4-11) [I-1612]"
5,2060,"Ac-[αAllylPro]D[tBuAla][B5(4)]NTAAF[hLeu][PyrS2″][3Thi][Bta]Q-NH2 (staple 1-4, 4-11) [I-1620]"
6,9,"Ac-[αAllylPro]D[tBuAla][B5(3)]D[TfeGA]AAFT[PyrS2″][Phe(2-Cl)][Bta][MorphAsn]-NH2 (staple 1-4, 4-11) [I-1613]"
7,10000,"Ac-[αAllylPro]D[tBuAla][B5(4)]NTAAFL[PyrS2″][3Thi][Bta]Q-NH2 (staple 1-4, 4-11) [I-1618]"

# Second part, the binder before the results:
row,Binder,IC50 [nM]
1,"Ac-[αAllylPro]D[tBuAla][B5(3)]D[Phe(3-COOH)]AAFL[PyrS2][2F3MeF][Bta][Nva(5-morpholino)]-NH2 (staple 1-4, 4-11) [I-1610]",19
2,"Ac-[αAllylPro]N[tBuAla][B5(4)]DT[Lys(iPr)]AFS[PyrS2]F[Bta]Q-NH2 (staple 1-4, 4-11) [I-1601]",2020
3,"Ac-[αAllylPro]N[tBuAla][B5(4)]DT[Lys(iPr)]ASL[PyrS2]F[Bta]Q-NH2 (staple 1-4, 4-11) [I-1597]",6990
4,"Ac-[αAllylPro]N[tBuAla][B5(4)]DT[Lys(iPr)]AFW[PyrS2]F[Bta]Q-NH2 (staple 1-4, 4-11) [I-1600]",4290
5,"Ac-[αAllylPro]D[tBuAla][B5(3)]D[TfeGA]AAFT[PyrS2″][Phe(2-Cl)][Bta][MePpzAsn]-NH2 (staple 1-4, 4-11) [I-1611]",10
6,"Ac-[αAllylPro]D[tBuAla][B5(4)]D[TfeGA]AAFT[PyrS2][Phe(2-Cl)][Bta][F2PipNva]-NH2 (staple 1-4, 4-11) [I-1607]",49
7,"Ac-[αAllylPro]D[tBuAla][B5(3)]D[TfeGA]AAFT[PyrS2][Phe(2-Cl)][Bta][Nva(5-morpholino)]-NH2 (staple 1-4, 4-11) [I-1609]",15
8,"Ac-[αAllylPro]N[tBuAla][B5(4)]DT[Lys(iPr)]AFN[PyrS2]F[Bta]Q-NH2 (staple 1-4, 4-11) [I-1602]",362
9,"Ac-[αAllylPro]D[tBuAla][B5(4)]D[Phe(3-COOH)]AAFL[PyrS2][2F3MeF][Bta][F2PipNva]-NH2 (staple 1-4, 4-11) [I-1608]",76
10,"Ac-[αAllylPro]N[tBuAla][B5(4)]DT[Lys(iPr)]AFF[PyrS2]F[Bta]Q-NH2 (staple 1-4, 4-11) [I-1599]",1080
